Consider 1 protein from patent US20050180949A1 (NUVELO, published 2005).

This data set deals with the molecule itself. Nature of the data set: non-reducing vs reducing SDS-PAGE of the purified protein, Western blot with HRP-conjugated anti-V5 antibody (self-association / oligomerization). Here is the method: Purified recombinant full-length hC1Q/TNF7 protein expressed in HEK-293 cells was treated as follows: N=non-reduced only; N+H=non-reduced plus heating at 100° C. for 10 min; R=reduced only; and R+H=reduced plus heating at 100° C. for 10 min.
Studies of C1Q and 1C1Q-related proteins, such as adiponectin (Ad), indicate that most of the proteins form trimer, hexamer and higher molecular weight species (Shapiro and Scherer, Curr. Biol. 8:335-338 (1998) herein incorporated by reference in its entirety). To determine the oligomerization status of the hC1Q/TNF7 protein, the HEK293-expressed full-length hC1Q/TNF7 was treated under various conditions: non-reduced only (N); non-reduced plus heating at 100° C. for 10 min (N+H); reduced only (R); and reduced plus heating at 100° C. for 10 min (R+H). […] After heat treatment under non-reducing conditions, hC1Q/TNF7 migrated in 3 major bands: approximately 40, approximately 80, and approximately 160 kDa (Lane 2). In contrast, when hC1Q/TNF7 was treated under reducing conditions with or without heating, it ran as a single band at approximately 40 kDa (Lanes 3 and 4). Similar results were obtained using hC1Q/TNF7-F1 protein and an N-terminal V5His-tagged version of full-length hC1Q/TNF7 (not shown).

B1: full-length hC1Q/TNF7, carboxy-terminal V5His6-tagged, expressed in HEK-293 cells (ligand)
chain: QPRGNQLKGENYSPRYICSIPGLPGPPGPPGANGSPGPHGRIGLPGRDGRDGRKGEKGEKGTAGLRGKTGPLGLAGEKGDQGETGKKGPIGPEGEKGEVGPIGPPGPKGDRGEQGDPGLPGVCRCGSIVLKSAFSVGITTSYPEERLPIIFNKVLFNEGEHYNPATGKFICAFPGIYYFSYDITLANKHLAIGLVHNGQYRIKTFDANTGNHDVASGSTVIYLQPEDEVWLEIFFTDQNGLFSDPGWADSLFSGFLLYVDTDYLDSISEDDEL
notes: The signal peptide cleavage site is only predicted; Oligomer state as told: dimers, tetramers and higher order oligomers; also called HEK293-expressed full-length hC1Q/TNF7; human C1Q/TNF7; not shown: C-terminal V5His6 tag from the pIntron vector
Take B1: the binding result is on record as “binds”.
